Key:
[1] = substrate: F protein of RSV B-wash (strain 18537) (respiratory syncytial virus B, strain 18537) (UniProt P13843); experiment: cell-based or functional assay
[2] = substrate: F protein of RSV B-1 (respiratory syncytial virus B-1) (UniProt O36634); experiment: cell-based or functional assay
F protein of RSV B-1 (respiratory syncytial virus B-1), sequence (O36634 26-574): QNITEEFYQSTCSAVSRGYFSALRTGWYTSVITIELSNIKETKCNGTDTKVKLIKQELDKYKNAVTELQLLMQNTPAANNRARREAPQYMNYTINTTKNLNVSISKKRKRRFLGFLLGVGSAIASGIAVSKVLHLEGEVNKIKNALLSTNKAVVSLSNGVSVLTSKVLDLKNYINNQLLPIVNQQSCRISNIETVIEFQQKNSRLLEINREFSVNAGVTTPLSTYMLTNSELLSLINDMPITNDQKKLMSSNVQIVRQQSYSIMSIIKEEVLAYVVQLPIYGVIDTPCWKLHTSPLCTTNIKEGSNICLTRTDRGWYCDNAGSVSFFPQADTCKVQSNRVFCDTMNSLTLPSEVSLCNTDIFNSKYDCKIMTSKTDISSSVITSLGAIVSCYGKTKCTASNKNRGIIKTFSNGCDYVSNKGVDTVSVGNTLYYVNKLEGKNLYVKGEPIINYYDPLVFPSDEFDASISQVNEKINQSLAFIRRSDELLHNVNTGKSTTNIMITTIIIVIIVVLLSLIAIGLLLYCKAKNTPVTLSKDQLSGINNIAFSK

F protein of RSV B-wash (strain 18537) (respiratory syncytial virus B, strain 18537), sequence (P13843 26-574): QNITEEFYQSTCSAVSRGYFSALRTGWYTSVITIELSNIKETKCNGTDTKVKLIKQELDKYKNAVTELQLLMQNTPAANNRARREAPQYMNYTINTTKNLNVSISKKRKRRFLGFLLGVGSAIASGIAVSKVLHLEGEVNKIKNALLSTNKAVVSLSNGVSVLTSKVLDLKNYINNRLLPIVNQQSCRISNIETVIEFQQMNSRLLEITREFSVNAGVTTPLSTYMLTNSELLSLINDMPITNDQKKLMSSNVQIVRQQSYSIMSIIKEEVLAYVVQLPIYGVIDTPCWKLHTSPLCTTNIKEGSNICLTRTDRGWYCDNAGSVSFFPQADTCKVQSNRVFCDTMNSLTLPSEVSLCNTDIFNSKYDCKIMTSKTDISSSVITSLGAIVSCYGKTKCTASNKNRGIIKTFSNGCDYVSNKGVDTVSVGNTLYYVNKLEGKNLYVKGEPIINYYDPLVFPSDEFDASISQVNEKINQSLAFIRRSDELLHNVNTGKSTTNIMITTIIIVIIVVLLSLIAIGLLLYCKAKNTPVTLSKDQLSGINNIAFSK

B1: IgG form of 90D3 (antibody, V domains shown)
VH: QVQLVESGGGLVKPGGSLRLSCVGSGFTLKNYEMNWVRQAPGQGLQYISYISSSGNVVKYVDSVQGRFTISRDNAGNSLYLQMNNLRAEDTATYYCVRGFSIDKYDSSVDEYWGQGIAVTVSS
VL: AIRLTQSPSSLSASVGDRVSITCRASQSISNFLNWYQQKPGRAPKLLISAASSLQGGVPSRFSGSGSGTDFTLTISSLQPEDFATYYCQQTYISLYTFGQGTKLEIKR
B1 was tested, and the ED50, plaque reduction, RSV B/wash [1] was 1.4 nM and the ED50, plaque reduction, RSV B-1 [2] was 1.4 nM.

Reference: patent US20140363427A1
